Earlier results as cited in publication PMC7696831.
pKd: −log10 of the molar value.

Biological target: SARS-CoV spike protein (Severe acute respiratory syndrome coronavirus) (UniProt P59594)

Sequence of angiotensin-converting enzyme 2 (Q9BYF1 18-708): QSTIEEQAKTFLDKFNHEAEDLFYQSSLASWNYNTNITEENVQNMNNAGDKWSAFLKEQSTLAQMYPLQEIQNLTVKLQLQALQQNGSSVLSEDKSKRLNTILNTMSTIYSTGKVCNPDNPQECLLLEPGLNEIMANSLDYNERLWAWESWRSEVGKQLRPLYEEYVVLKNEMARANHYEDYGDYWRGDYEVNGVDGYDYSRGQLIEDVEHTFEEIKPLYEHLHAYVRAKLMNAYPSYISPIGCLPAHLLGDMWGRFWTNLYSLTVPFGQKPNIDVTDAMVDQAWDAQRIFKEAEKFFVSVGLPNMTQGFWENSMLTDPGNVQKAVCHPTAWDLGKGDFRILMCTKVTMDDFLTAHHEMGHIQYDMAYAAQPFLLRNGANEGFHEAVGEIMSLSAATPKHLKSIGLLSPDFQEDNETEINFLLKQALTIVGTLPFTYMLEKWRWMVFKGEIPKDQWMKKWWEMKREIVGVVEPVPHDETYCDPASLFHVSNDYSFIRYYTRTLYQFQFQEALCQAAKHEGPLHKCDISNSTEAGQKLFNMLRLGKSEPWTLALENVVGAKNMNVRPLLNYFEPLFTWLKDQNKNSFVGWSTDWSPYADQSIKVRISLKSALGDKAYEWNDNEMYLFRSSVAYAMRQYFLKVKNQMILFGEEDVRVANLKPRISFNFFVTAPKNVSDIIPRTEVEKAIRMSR

Substance: angiotensin-converting enzyme 2 (from UniProt Q9BYF1)
- pKd: 6.49
